The supplement of paper PMC10065799, “High-throughput profiling of sequence recognition by tyrosine kinases and SH2 domains using bacterial peptide display” (eLife, 2023)

Columns and labels:
Hck = Hck (UniProt P08631); assay: phosphorylation enrichment, bacterial display (enrichment ratio); higher = better substrate or ligand; peptides without Tyr show the background
Fer (mouse) = assay: as above
AncSZ = assay: as above
c-Src = assay: as above
FGFR1 = FGFR1 (UniProt P11362); assay: as above
Fyn = Fyn (UniProt P06241); assay: as above
c-Abl (mouse) = assay: as above
EPHB1 = EPHB1 (UniProt P54762); assay: as above
FGFR3 = FGFR3 (UniProt P22607); assay: as above
MERTK = MERTK (UniProt Q12866); assay: as above
Fes = Fes (UniProt P07332); assay: as above
Jak2 = Jak2 (UniProt O60674); assay: as above
EPHB2 = EPHB2 (UniProt P29323); assay: as above
c-Src SH2 = assay: SH2 binding enrichment of the phosphorylated peptide, bacterial display (enrichment ratio); higher = better substrate or ligand; peptides without Tyr show the background
SHP2-C SH2 = assay: as above
Grb2 SH2 = Grb2 SH2 (UniProt P62993); assay: as above
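Wherever SH2 binding enrichment of the phosphorylated peptide, bacterial display is given: peptide library displayed on the E. coli surface as eCPX fusions, selected cells deep-sequenced, score is each peptide's frequency after selection divided by its frequency in the input.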
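Wherever phosphorylation enrichment, bacterial display is given: 11-residue human phosphosite peptides and single-mutation variants displayed on the E. coli surface, counted by deep sequencing, each peptide's frequency after selection divided by its frequency in the unselected input library; frequency after pTyr selection over input frequency; kinase dosed for 20-30% of maximal phosphorylation in three min.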

Sequence of Jak2 (O60674 whole entry, looked up): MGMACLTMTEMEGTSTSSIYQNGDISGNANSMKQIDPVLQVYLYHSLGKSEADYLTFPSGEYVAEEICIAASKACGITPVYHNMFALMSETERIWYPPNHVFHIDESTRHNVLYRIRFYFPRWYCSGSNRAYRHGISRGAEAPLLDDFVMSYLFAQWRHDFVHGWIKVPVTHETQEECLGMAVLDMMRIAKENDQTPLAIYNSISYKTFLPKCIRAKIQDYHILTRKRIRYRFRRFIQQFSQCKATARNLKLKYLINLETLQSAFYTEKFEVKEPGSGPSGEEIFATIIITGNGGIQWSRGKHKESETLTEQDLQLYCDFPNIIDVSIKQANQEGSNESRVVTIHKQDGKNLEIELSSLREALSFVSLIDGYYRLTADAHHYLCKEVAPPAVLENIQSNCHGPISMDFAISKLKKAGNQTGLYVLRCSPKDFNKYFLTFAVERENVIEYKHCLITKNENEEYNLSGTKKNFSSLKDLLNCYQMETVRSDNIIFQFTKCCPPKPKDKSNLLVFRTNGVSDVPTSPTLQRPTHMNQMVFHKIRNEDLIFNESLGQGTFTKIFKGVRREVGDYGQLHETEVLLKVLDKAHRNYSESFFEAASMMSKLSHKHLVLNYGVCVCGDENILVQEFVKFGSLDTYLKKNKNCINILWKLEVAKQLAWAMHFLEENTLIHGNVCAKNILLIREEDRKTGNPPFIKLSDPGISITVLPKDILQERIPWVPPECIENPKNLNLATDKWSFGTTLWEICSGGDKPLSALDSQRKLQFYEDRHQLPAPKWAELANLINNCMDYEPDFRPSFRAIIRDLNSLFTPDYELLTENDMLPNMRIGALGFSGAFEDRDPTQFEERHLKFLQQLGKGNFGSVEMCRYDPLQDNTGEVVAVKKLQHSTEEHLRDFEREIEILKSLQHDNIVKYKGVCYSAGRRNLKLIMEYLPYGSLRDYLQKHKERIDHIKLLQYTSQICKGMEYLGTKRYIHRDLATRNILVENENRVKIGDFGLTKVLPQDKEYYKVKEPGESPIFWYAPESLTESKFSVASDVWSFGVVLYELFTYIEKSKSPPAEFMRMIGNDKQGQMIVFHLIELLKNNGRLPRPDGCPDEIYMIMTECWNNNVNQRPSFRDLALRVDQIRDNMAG
Sequence of FGFR1 (P11362 whole entry, looked up): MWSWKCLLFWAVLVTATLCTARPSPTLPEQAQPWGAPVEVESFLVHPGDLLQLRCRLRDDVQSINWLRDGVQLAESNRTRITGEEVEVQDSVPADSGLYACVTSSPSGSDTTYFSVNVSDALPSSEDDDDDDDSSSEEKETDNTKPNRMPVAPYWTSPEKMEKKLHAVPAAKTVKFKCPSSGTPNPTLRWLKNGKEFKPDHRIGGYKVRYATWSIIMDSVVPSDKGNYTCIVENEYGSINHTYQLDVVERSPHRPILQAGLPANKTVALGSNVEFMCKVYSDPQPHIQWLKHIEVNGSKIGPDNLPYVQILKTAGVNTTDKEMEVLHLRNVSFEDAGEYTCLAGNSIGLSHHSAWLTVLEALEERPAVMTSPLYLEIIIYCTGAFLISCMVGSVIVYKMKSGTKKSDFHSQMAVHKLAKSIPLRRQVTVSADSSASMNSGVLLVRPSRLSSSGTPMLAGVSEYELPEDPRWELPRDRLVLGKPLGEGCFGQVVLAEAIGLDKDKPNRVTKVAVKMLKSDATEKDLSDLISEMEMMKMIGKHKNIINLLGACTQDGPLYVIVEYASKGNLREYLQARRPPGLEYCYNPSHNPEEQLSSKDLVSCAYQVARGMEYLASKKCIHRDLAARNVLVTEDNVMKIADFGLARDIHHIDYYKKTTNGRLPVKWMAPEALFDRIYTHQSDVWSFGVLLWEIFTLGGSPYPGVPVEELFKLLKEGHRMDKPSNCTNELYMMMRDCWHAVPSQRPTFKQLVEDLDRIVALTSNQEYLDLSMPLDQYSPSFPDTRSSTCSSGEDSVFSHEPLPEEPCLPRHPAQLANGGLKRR
Sequence of EPHB1 (P54762 whole entry, looked up): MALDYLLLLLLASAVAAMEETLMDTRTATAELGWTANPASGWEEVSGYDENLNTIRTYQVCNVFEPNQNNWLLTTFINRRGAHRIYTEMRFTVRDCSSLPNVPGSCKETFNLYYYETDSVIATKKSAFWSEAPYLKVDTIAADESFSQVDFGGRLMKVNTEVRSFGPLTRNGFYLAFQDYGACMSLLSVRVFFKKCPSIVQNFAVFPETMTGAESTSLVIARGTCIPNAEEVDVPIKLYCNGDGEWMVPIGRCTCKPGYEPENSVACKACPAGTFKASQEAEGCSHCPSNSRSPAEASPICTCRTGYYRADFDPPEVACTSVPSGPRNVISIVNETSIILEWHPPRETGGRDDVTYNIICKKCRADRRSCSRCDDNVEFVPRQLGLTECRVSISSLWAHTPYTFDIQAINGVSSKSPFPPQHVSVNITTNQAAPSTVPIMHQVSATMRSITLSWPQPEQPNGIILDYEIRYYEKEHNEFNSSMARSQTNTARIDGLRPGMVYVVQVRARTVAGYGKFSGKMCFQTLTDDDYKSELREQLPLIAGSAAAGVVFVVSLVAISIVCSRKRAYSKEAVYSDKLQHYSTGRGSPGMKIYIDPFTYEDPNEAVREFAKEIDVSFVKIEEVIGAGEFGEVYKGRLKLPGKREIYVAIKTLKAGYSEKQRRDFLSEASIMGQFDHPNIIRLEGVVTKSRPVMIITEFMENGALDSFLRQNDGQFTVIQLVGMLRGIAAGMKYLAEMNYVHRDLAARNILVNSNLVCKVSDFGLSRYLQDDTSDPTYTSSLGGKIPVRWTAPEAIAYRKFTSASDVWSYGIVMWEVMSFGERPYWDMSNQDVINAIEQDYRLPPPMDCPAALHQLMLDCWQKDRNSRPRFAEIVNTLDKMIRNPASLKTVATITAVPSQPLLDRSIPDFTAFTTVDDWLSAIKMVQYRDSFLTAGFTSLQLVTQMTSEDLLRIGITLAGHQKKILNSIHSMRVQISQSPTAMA
Sequence of FGFR3 (P22607 whole entry, looked up): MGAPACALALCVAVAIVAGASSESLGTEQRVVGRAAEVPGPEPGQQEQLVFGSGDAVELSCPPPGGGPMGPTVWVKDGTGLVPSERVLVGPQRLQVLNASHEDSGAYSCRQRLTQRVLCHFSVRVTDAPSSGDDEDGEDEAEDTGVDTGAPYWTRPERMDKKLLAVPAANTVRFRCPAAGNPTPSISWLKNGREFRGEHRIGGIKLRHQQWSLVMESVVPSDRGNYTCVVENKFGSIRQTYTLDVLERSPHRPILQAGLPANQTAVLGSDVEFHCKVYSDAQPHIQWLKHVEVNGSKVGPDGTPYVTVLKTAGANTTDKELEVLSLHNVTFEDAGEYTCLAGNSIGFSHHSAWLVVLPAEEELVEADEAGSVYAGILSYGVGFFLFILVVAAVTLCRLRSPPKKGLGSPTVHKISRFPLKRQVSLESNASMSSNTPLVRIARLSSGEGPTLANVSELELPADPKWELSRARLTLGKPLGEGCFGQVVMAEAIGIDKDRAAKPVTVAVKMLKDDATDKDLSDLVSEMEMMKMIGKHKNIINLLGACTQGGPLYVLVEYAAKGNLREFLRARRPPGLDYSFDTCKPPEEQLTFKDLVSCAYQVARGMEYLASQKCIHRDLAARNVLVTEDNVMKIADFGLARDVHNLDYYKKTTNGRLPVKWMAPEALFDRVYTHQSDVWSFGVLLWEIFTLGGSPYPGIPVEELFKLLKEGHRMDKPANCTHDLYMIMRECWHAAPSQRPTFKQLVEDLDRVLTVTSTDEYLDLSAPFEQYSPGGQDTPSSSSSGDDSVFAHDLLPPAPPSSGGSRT
Sequence of EPHB2 (P29323 whole entry, looked up): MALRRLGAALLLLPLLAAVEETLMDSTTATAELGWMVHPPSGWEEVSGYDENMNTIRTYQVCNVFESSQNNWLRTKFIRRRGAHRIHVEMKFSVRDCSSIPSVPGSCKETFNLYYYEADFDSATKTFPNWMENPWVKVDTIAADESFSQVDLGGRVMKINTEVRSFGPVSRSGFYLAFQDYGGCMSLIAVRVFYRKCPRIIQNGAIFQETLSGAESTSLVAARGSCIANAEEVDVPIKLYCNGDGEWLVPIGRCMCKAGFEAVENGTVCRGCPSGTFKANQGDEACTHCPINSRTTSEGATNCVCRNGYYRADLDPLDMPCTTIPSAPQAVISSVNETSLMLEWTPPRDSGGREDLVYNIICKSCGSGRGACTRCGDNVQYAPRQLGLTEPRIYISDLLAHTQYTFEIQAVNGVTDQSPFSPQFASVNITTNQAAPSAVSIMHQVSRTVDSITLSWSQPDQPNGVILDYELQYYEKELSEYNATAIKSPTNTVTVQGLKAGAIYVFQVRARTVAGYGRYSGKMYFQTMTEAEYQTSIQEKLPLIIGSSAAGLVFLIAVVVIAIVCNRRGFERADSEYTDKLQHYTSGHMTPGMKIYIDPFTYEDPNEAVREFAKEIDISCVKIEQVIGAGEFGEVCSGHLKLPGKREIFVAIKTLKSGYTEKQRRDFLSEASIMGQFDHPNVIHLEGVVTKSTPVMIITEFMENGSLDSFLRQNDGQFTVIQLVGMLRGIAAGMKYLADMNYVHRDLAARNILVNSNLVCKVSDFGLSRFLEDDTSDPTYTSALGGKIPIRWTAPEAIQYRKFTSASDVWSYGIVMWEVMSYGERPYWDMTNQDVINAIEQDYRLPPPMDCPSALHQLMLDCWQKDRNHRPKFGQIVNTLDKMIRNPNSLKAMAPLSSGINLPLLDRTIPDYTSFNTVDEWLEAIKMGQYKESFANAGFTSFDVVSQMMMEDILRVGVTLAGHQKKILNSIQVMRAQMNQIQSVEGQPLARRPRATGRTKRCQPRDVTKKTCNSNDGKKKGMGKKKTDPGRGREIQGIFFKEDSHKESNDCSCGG
Sequence of Grb2 SH2 (P62993 whole entry, looked up, the tested form may be a part): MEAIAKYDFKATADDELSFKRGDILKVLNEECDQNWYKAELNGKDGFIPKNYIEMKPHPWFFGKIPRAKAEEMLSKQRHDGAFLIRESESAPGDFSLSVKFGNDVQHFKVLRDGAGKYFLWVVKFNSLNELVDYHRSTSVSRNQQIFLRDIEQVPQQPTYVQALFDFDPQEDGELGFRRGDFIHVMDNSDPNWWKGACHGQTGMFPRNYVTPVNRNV

Sequence | phosphorylation enrichment (Hck) | phosphorylation enrichment (Fer (mouse)) | phosphorylation enrichment (AncSZ) | phosphorylation enrichment (c-Src) | phosphorylation enrichment (FGFR1) | phosphorylation enrichment (Fyn) | phosphorylation enrichment (c-Abl (mouse)) | phosphorylation enrichment (EPHB1) | phosphorylation enrichment (FGFR3) | phosphorylation enrichment (MERTK) | phosphorylation enrichment (Fes) | phosphorylation enrichment (Jak2) | phosphorylation enrichment (EPHB2) | SH2 binding enrichment (c-Src SH2) | SH2 binding enrichment (SHP2-C SH2) | SH2 binding enrichment (Grb2 SH2)
ALAHEYHGGGG [HBB_Y146_K145E] | 0.425 | 0.354 | 0.469 | 0.41 | 0.41 | 0.361 | 0.493 | 0.397 | 0.361 | 0.287 | 0.461 | 0.599 | 0.314 | 0.696 | 0.627 | 0.776
ALAQKYHGGGG [HBB_Y146_H144Q] | 0.368 | 0.296 | 0.492 | 0.404 | 0.348 | 0.335 | 0.592 | 0.372 | 0.497 | 0.363 | 0.491 | 0.462 | 0.366 | 0.506 | 0.743 | 0.782
ALRHFYKLNII [ETV6_Y402_YF] | 0.482 | 0.502 | 0.828 | 0.439 | 0.462 | 0.471 | 0.84 | 0.522 | 0.628 | 0.44 | 1.03 | 0.875 | 0.535 | 1.27 | 2.11 | 1.25
ALTRSYVREKV [CYP2C8_Y243_I244V] | 0.437 | 0.398 | 0.571 | 0.316 | 0.364 | 0.387 | 0.617 | 0.42 | 0.522 | 0.459 | 0.532 | 0.353 | 0.462 | 0.495 | 0.551 | 0.804
ALWYIYSHTRS [ENG_Y614] | 0.523 | 0.572 | 1.1 | 0.423 | 0.487 | 0.47 | 0.807 | 0.679 | 1.03 | 0.418 | 1.33 | 1.14 | 0.768 | 0.451 | 0.711 | 0.931
ANAYIYVVQLP [L1CAM_Y420] | 0.714 | 0.478 | 1.33 | 1.04 | 1.25 | 0.841 | 0.734 | 0.875 | 1.18 | 1.53 | 1.17 | 1.14 | 0.735 | 0.814 | 1.44 | 1.37
ANNPLYKEATS [ITGB3_Y773] | 0.385 | 0.228 | 0.395 | 0.3 | 0.349 | 0.343 | 0.635 | 0.363 | 0.379 | 0.316 | 0.53 | 0.406 | 0.499 | 0.53 | 0.913 | 1.04
APSEFYDGDHD [HDAC3_Y414_N411S] | 0.528 | 0.639 | 1.3 | 0.565 | 0.78 | 0.615 | 0.932 | 0.659 | 0.923 | 0.51 | 1.35 | 1.32 | 0.55 | 0.544 | 0.733 | 1.1
ARGTRYRFVSQ [UCN3_Y95_YF] | 0.546 | 0.492 | 0.597 | 0.607 | 0.483 | 0.52 | 0.63 | 0.416 | 0.535 | 0.48 | 0.548 | 0.742 | 0.41 | 0.458 | 0.407 | 0.627
ARLEFCENEKK [IRS1_Y47_Y47C_YF] | 0.402 | 0.568 | 0.983 | 0.484 | 0.581 | 0.515 | 0.868 | 0.636 | 0.926 | 0.434 | 1.23 | 1.02 | 0.575 | 0.626 | 0.686 | 0.743
ARTNEYKIIRS [INA_Y87_T92S] | 0.316 | 0.33 | 0.435 | 0.407 | 0.282 | 0.406 | 0.337 | 0.394 | 0.406 | 0.407 | 0.563 | 0.454 | 0.372 | 0.514 | 0.859 | 1.06
ASKEPYFVRCI [MYO1D_Y585_YF] | 0.659 | 0.569 | 1.38 | 0.611 | 0.449 | 0.622 | 0.938 | 0.762 | 0.93 | 0.574 | 1.77 | 1.22 | 0.734 | 0.398 | 0.448 | 0.904
ASKEPYYVHCI [MYO1D_Y585_R588H] | 0.554 | 0.506 | 0.953 | 0.576 | 1.89 | 0.482 | 0.627 | 1.96 | 1.36 | 0.636 | 0.974 | 0.755 | 1.21 | 0.685 | 0.889 | 0.924
ASQEEYSAMRD [KRAS_Y64_G60S] | 0.531 | 0.435 | 1.08 | 0.508 | 0.714 | 0.487 | 0.681 | 0.577 | 0.68 | 0.496 | 0.946 | 0.976 | 0.58 | 0.77 | 0.502 | 0.812
ATPSRYMTFLH [DYNC2H1_Y2872] | 0.487 | 0.457 | 0.667 | 0.482 | 0.329 | 0.435 | 0.527 | 0.505 | 0.574 | 0.396 | 0.748 | 0.656 | 0.403 | 1.32 | 8.55 | 0.757
ATQDNYVLEVR [PTPRZ1_Y2179_D2178N] | 0.411 | 0.486 | 0.934 | 0.38 | 0.489 | 0.452 | 0.6 | 0.502 | 0.676 | 0.45 | 1.08 | 0.821 | 0.458 | 0.628 | 0.557 | 0.651
AVAFLYYKSIG [ADGRL4_Y301_V300L] | 0.518 | 0.46 | 1.09 | 0.459 | 0.566 | 0.417 | 1.07 | 0.555 | 0.796 | 0.469 | 1.42 | 1.24 | 0.54 | 0.461 | 0.559 | 0.722

Sequence | phosphorylation enrichment (Hck) | phosphorylation enrichment (Fer (mouse)) | phosphorylation enrichment (AncSZ) | phosphorylation enrichment (c-Src) | phosphorylation enrichment (FGFR1) | phosphorylation enrichment (Fyn) | phosphorylation enrichment (c-Abl (mouse)) | phosphorylation enrichment (EPHB1) | phosphorylation enrichment (FGFR3) | phosphorylation enrichment (MERTK) | phosphorylation enrichment (Fes) | phosphorylation enrichment (Jak2) | phosphorylation enrichment (EPHB2) | SH2 binding enrichment (c-Src SH2) | SH2 binding enrichment (SHP2-C SH2) | SH2 binding enrichment (Grb2 SH2)
CDYKKYGKGLR [ZNF445_Y433_Y428C] | 0.349 | 0.318 | 0.565 | 0.299 | 0.404 | 0.364 | 0.525 | 0.284 | 0.445 | 0.335 | 0.576 | 0.563 | 0.362 | 0.6 | 0.805 | 0.882
CFTRQYTLPPG [HSPB1_Y142_K141Q] | 0.497 | 0.496 | 0.976 | 0.361 | 0.553 | 0.388 | 0.722 | 0.577 | 0.656 | 0.399 | 0.943 | 0.901 | 0.57 | 0.523 | 0.794 | 0.773
CKLCQYFLDHL [ATRX_Y1849_Y1847C_YF] | 0.456 | 0.442 | 1.28 | 0.766 | 0.689 | 0.449 | 0.89 | 0.571 | 0.661 | 0.49 | 1.18 | 1.16 | 0.612 | 1.1 | 1.18 | 1.46
CKLCQYYLDHL [ATRX_Y1849_Y1847C] | 0.437 | 0.423 | 0.795 | 1.57 | 0.579 | 0.515 | 0.593 | 0.673 | 0.613 | 0.419 | 0.779 | 0.806 | 0.419 | 1.39 | 1.67 | 1.54
CNSFRYGGGGG [NPPA_Y151] | 0.349 | 0.488 | 0.857 | 0.311 | 0.389 | 0.439 | 0.597 | 0.35 | 0.469 | 0.348 | 0.766 | 0.5 | 0.552 | 0.586 | 1.29 | 0.692
CNTIHYNFMCN [TP53_Y234_T230N_YF] | 0.531 | 0.483 | 0.787 | 0.498 | 0.513 | 0.419 | 0.601 | 0.438 | 0.515 | 0.357 | 0.822 | 0.636 | 0.4 | 2.09 | 1.27 | 1.41
CPSLLYSPVSS [CAMKK2_Y128_P127L] | 6.11 | 12.2 | 1.44 | 3.5 | 1.38 | 1.87 | 1.06 | 4.73 | 1.36 | 8.18 | 2.02 | 1.28 | 4.13 | 1.07 | 0.682 | 0.784
CTNPQYLAAGS [RABL3_Y185_R184Q] | 0.505 | 0.47 | 0.724 | 0.409 | 0.465 | 0.537 | 0.602 | 0.487 | 0.609 | 0.424 | 0.849 | 0.778 | 0.505 | 0.589 | 0.721 | 0.885
CTSIHYNFMCN [TP53_Y234_T231S_YF] | 0.473 | 0.519 | 0.848 | 0.447 | 0.488 | 0.516 | 0.694 | 0.54 | 0.571 | 0.366 | 0.918 | 1 | 0.502 | 2.05 | 1.59 | 1.57
CTTIHCNFMCN [TP53_Y234_Y234C_YF] | 0.446 | 0.454 | 0.782 | 0.441 | 0.45 | 0.419 | 0.629 | 0.67 | 0.574 | 0.441 | 0.869 | 0.862 | 0.546 | 0.837 | 0.889 | 1.22
CTTIHFNYMCN [TP53_Y234_Y234F] | 0.427 | 0.572 | 0.68 | 0.519 | 0.534 | 0.432 | 0.458 | 0.488 | 0.553 | 0.397 | 0.74 | 0.628 | 0.501 | 1.72 | 2.05 | 1.83
CTTIHYNFMCK [TP53_Y234_N239K_YF] | 0.533 | 0.351 | 0.659 | 0.413 | 0.418 | 0.476 | 0.562 | 0.403 | 0.489 | 0.407 | 0.816 | 0.631 | 0.387 | 1.68 | 2.05 | 1.4
CTTIYYNYMCN [TP53_Y234_H233Y] | 6.93 | 2.86 | 1.54 | 6.51 | 12.1 | 8.51 | 6.37 | 4.95 | 9.96 | 7.86 | 1.03 | 5.1 | 4.3 | 3.1 | 2.23 | 3.51
CVRTIYTIDGS [DCLK2_Y124_G119C] | 0.683 | 0.505 | 0.891 | 1.97 | 0.447 | 1.32 | 0.799 | 0.746 | 1 | 0.481 | 1.06 | 0.807 | 0.628 | 0.529 | 0.432 | 0.702
DAANNYARGHF [TUBA3E_Y103_S101N_YF] | 0.426 | 0.431 | 0.698 | 0.468 | 0.422 | 0.425 | 1.06 | 0.382 | 0.403 | 0.544 | 0.652 | 0.391 | 0.626 | 0.531 | 0.823 | 0.665
DAICFYRMENA [NPHS2_Y195_YF] | 0.624 | 0.592 | 1.14 | 2.96 | 0.624 | 0.726 | 0.914 | 0.645 | 0.85 | 0.482 | 1.47 | 1.19 | 0.544 | 0.56 | 0.805 | 0.785
